These results are taken from US20230056252A1 (Gilead, published 2023).

Assay [1] concerns the target T1, CD3 expressed on cell-surface of primary human T cells (human, UniProt P07766 23-207; P04234 22-171).
T1 construct: also called cell-surface CD3; human CD3
The assay is described as follows: flow cytometry competition vs murine SP34-AF488 on human T cells, n = 1. In general terms: A flow cytometer gives signals particle by particle.
Procedure: (§1) Binding of humanized SP34 Fab variants to CD3 expressed on cell-surface of primary human T cells was evaluated in a flow cytometry-based competition assay.

The target of assay [2] is T1, CD3 expressed on cell-surface of …. The assay is described as follows: flow cytometry competition vs murine SP34-AF488 on human T cells, average.
Procedure: as §1
Assay [3] has the same target. The assay is described as follows: flow cytometry competition vs murine SP34-AF488 on human T cells, n = 2.
Procedure: as §1
The target is the same in assay [4]. The assay is described as follows: flow cytometry competition vs murine SP34-AF488 on human T cells, average. This is another data set of the same source.
Procedure: as §1
(§2) A second round of huSP34 Fab variants were characterized using the same flow cytometry-based competition assay as described above.
For assay [5] the target is unchanged. The experiment in a line: flow cytometry competition vs murine SP34-AF488 on human T cells, n = 2. This is another data set of the same source.
Procedure: as §1, §2
Assay [6] has the same target. The experiment in a line: flow cytometry competition vs murine SP34-AF488 on human T cells, n = 1. This is another data set of the same source.
Procedure: as §1, §2
The target in assay [7] is CD3 on rhesus monkey T cells in PBMCs (rhesus monkey). The experiment in a line: flow cytometry on PBMCs, % anti-huIgG+ CD4+ cells, donor rh 3483.
CD3 on rhesus monkey T cells in PBMCs (rhesus monkey), sequence (P16003 26-458): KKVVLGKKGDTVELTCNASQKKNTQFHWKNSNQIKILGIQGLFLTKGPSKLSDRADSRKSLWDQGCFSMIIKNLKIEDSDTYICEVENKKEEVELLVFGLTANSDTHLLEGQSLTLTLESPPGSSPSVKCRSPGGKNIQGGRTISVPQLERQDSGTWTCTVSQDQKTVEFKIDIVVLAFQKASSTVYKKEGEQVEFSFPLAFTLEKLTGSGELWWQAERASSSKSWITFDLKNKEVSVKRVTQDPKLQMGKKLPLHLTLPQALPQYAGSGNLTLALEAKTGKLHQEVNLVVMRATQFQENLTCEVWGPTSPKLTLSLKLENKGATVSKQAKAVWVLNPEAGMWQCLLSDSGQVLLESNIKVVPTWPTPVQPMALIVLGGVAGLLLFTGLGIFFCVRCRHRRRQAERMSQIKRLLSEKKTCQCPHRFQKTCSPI
For assay [8] the target is unchanged. The assay is described as follows: flow cytometry on PBMCs, % anti-huIgG+ CD4+ cells, donor rh 3563.
Assay [9] deals with T1, CD3 expressed on cell-surface of …. The experiment in a line: flow cytometry on PBMCs, % anti-huIgG+ CD4+ cells, donor hu 340.
Procedure: (§3) Briefly, PBMCs from healthy human donors and healthy rhesus or cynomolgus monkey donors were incubated with different concentrations of HIV×CD3 bispecific molecules for 1 hour at RT. […] Cells were then washed, fixed/permeabilized, and analyzed on BD LSRFortessa. The percentage of α-huIgG-APC-positive CD4+ and CD8+ T cells and the mFI of the α-huIgG-APC of CD4+ and CD8+ cells were collected, and data analyzed using GraphPad Prism.
Assay [10] has as its target CD3 on rhesus monkey T cells in PBMCs (rhesus monkey). The assay is described as follows: flow cytometry on PBMCs, % anti-huIgG+ CD8+ cells, donor rh 3563.
Assay [11] concerns the target T1, CD3 expressed on cell-surface of …. The assay is described as follows: flow cytometry on PBMCs, % anti-huIgG+ CD8+ cells, donor hu 340.
Procedure: as §3
For assay [12] the target is unchanged. The assay is described as follows: flow cytometry on PBMCs, % anti-huIgG+ CD4+ cells, donor hu 151.
Assay [13] addresses CD3 on rhesus monkey T cells in PBMCs (rhesus monkey). The assay is described as follows: flow cytometry on PBMCs, % anti-huIgG+ CD8+ cells, donor rh 3483.
The target in assay [14] is T1, CD3 expressed on cell-surface of …. The experiment in a line: flow cytometry on PBMCs, % anti-huIgG+ CD8+ cells, donor hu 151.
Procedure: as §3

T1 sequence (P07766 23-207 limits assumed, chain 1 of 2): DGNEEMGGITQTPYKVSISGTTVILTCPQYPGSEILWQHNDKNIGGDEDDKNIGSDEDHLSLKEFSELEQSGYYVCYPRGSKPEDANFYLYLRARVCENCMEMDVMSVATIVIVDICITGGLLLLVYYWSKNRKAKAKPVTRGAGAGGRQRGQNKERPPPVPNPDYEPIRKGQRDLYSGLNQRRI
T1 sequence (P04234 22-171 limits assumed, chain 2 of 2): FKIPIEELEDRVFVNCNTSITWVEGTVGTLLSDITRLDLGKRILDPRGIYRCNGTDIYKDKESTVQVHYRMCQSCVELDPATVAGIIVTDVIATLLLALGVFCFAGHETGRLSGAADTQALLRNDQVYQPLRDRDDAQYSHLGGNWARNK

B1: huSP34.2.1 Fab-HF (Fab, V domains shown)
VH: EVQLVESGGGLVQPGGSLRLSCAASGFTFSTYAMNWVRQAPGKGLEWVGRIRSKYNNYATYYAASVKGRFTISRDDSKNSLYLQMNSLKTEDTAMYYCVRHGNFGNSYVSWFAVWGQGTLVTVSS
VL: QAVVTQEPSLTVSPGGTVTLTCRSSTGAVTTSNYANWVQQKPGQAPRGLIGGTNKRAPWTPARFSGSLIGDKAALTLSGAQPEDEAEYYCALWYSNLWVFGGGTKLTVL
Regarding B1, the results for the IC50 in [1], in [2] and in [3] were 6.17 µg/mL, 4.92 µg/mL and 3.68 µg/mL, respectively.

B2: huSP34.3.1 Fab-HF (Fab, V domains shown)
VH: EVQLVESGGGLVQPGGSLRLSCAASGFTFNTYAMNWVRQAPGKGLEWVGRIRSKYNNYATYYADSVKGRFTISRDDSKNSLYLQMNSLRTEDTAVYYCVRHGNFGHSYVSWFAYWGQGTLVTVSS
VL: QAVVTQEPSLTVSPGGTVTLTCRSSTGAVTTSNYANWVQQKPGQAPRGLIGGTNKRAPWTPARFSGSLIGDKAALTLSGAQPEDEAEYYCALWYSNLWVFGGGTKLTVL
Consider B2, for which the half-inhibitory concentration (IC50) – broadly, the concentration at which inhibition is half-maximal – was 3.56 µg/mL in [1], 2.89 µg/mL in assay [2] and 2.22 µg/mL in assay [3].

B3: huSP34.2.6 Fab-HF (Fab, V domains shown)
VH: EVQLVESGGGLVQPGGSLRLSCAASGFTFSTYAMNWVRQAPGKGLEWVGRIRSKYNNYATYYAASVKGRFTISRDDSKNSLYLQMNSLKTEDTAMYYCVRHGNFGNSYVSWFAVWGQGTLVTVSS
VL: QAVVTQPPSLTVSPGGTVTLTCGSSTGAVTTGHYANWVQQKPGQAPRGLIGGTSNRAPGVPARFSGSLSGGKAALTISGAQPEDEAEYYCALWYSARWVFGGGTKLTVL
Consider B3, for which the IC50 was found to be 4.68 µg/mL in assay [1], 4.04 µg/mL in assay [2] and 3.4 µg/mL in [3].

B4: huSP34.3.5 Fab-HF (Fab, V domains shown)
VH: EVQLVESGGGLVQPGGSLRLSCAASGFTFNTYAMNWVRQAPGKGLEWVGRIRSKYNNYATYYADSVKGRFTISRDDSKNSLYLQMNSLRTEDTAVYYCVRHGNFGHSYVSWFAYWGQGTLVTVSS
VL: QAVVTQEPSLTVSPGGTVTLTCGSSTGAVTTGHYANWVQQKPGQAPRGLIGGTSNRAPWTPARFSGSLLGGKAALTLSGAQPEDEAEYYCALWYSARWVFGGGTKLTVL
Consider B4, for which the results for the IC50 in [1], in assay [2] and in assay [3] were 12.9 µg/mL, 11.4 µg/mL and 10 µg/mL, respectively.

B5: huSP34.4.6 Fab-HF (Fab, V domains shown)
VH: EVQLVESGGGLVQPGGSLRLSCAASGFTFSTYAMNWVRQAPGKGLEWVGRIRSKYNNYATYYAASVKGRFTISRDDSKNSLYLQMNSLRTEDTAVYYCVRHGNFGHSYVSWFAVWGQGTLVTVSS
VL: QAVVTQPPSLTVSPGGTVTLTCGSSTGAVTTGHYANWVQQKPGQAPRGLIGGTSNRAPGVPARFSGSLSGGKAALTISGAQPEDEAEYYCALWYSARWVFGGGTKLTVL
With B5, the IC50 in assay [1] was 18.5 µg/mL; in assay [2], 11.4 µg/mL; in assay [3], 4.2 µg/mL.

B6: huSP34.4.1 Fab-HF (Fab, V domains shown)
VH: EVQLVESGGGLVQPGGSLRLSCAASGFTFSTYAMNWVRQAPGKGLEWVGRIRSKYNNYATYYAASVKGRFTISRDDSKNSLYLQMNSLRTEDTAVYYCVRHGNFGHSYVSWFAVWGQGTLVTVSS
VL: QAVVTQEPSLTVSPGGTVTLTCRSSTGAVTTSNYANWVQQKPGQAPRGLIGGTNKRAPWTPARFSGSLIGDKAALTLSGAQPEDEAEYYCALWYSNLWVFGGGTKLTVL
Regarding B6, the IC50 in assay [1] came to 9.57 µg/mL; in [2], 7.74 µg/mL; in assay [3] it was 5.9 µg/mL.

B7: huSP34.13.9 Fab-HF (Fab, V domains shown)
VH: EVQLVESGGGLVQPGGSLRLSCAASGFTFSTYAMNWVRQAPGKGLEWVGRIRSKYNNYATYYAASVKGRFTISRDDSKNTLYLQMNSLRTEDTAVYYCVRHGNFGHSYVSWFAYWGQGTLVTVSS
VL: QAVVTQPPSLTVSPGGTVTLTCGSSTGAVTTGHYANWVQQKPGQAPRGLIGGTNKRAPGVPARFSGSLSGGKAALTISGAQPEDEAEYYCALWYSNLWVFGGGTKLTVL
Consider B7, for which the IC50 in assay [4] is 0.36 µg/mL; in assay [5], 0.25 µg/mL; in [6] it was 0.48 µg/mL.

B8: huSP34.2.2 Fab-HF (Fab, V domains shown)
VH: EVQLVESGGGLVQPGGSLRLSCAASGFTFSTYAMNWVRQAPGKGLEWVGRIRSKYNNYATYYAASVKGRFTISRDDSKNSLYLQMNSLKTEDTAMYYCVRHGNFGNSYVSWFAVWGQGTLVTVSS
VL: QAVVTQEPSLTVSPGGTVTLTCGSSTGAVTTSNYANWVQQKPGQAPRGLIGGTSNRAPWTPARFSGSLLGGKAALTLSGAQPEDEAEYYCALWYSNLWVFGGGTKLTVL
As to B8, the IC50 is above 20 µg/mL in assay [1], 16.6 µg/mL in [2] and 16.6 µg/mL in [3].

B9: huSP34.3.2 Fab-HF (Fab, V domains shown)
VH: EVQLVESGGGLVQPGGSLRLSCAASGFTFNTYAMNWVRQAPGKGLEWVGRIRSKYNNYATYYADSVKGRFTISRDDSKNSLYLQMNSLRTEDTAVYYCVRHGNFGHSYVSWFAYWGQGTLVTVSS
VL: QAVVTQEPSLTVSPGGTVTLTCGSSTGAVTTSNYANWVQQKPGQAPRGLIGGTSNRAPWTPARFSGSLLGGKAALTLSGAQPEDEAEYYCALWYSNLWVFGGGTKLTVL
Turning to B9, the half-inhibitory concentration (IC50) stood at 11.9 µg/mL in assay [1], 9.19 µg/mL in assay [2] and 6.44 µg/mL in [3].

B10: mSP34 Fab-HF (Fab, V domains shown)
VH: EVKLLESGGGLVQPKGSLKLSCAASGFTFNTYAMNWVRQAPGKGLEWVARIRSKYNNYATYYADSVKDRFTISRDDSQSILYLQMNNLKTEDTAMYYCVRHGNFGNSYVSWFAYWGQGTLVTVSA
VL: QAVVTQESALTTSPGETVTLTCRSSTGAVTTSNYANWVQEKPDHLFTGLIGGTNKRAPGVPARFSGSLIGDKAALTITGAQTEDEAIYFCALWYSNLWVFGGGTKLTVLG
notes: also called mSP34 chimeric Fab
Regarding B10, the IC50 came to 0.7 µg/mL in assay [2] and 0.68 µg/mL in assay [4].

B11: hPGT121.66 AAS + W/huSP34.3.8 scFv AAS + SAV + R (bispecific antibody, human IgG1, lambda, L234A L235A)
chain: EVQLVESGGGLVQPGGSLRLSCAASGFTFNTYAMNWVRQAPGKGLEWVGRIRSKYNNYATYYADSVKGRFTISRDDSKNSLYLQMNSLRTEDTAVYYCVRHGNFGHSYVSWFAYWGQGTLVTVSSGGGGSGGGGSGGGGSGGGGSQAVVTQEPSLTVSPGGTVTLTCGSSTGAVTTGHYANWVQQKPGQAPRGLIGGTNKRAPGVPARFSGSLLGGKAALTISGAQPEDEAEYYCALWYSNRWVFGGGTKLTVLEPKSSDKTHTCPPCPAPEAAGGPSVFLFPPKPKDTLMISRTPEVTCVVVDVSHEDPEVKFNWYVDGVEVHNAKTKPREEQYNSTYRVVSVLTVLHQDWLNGKEYKCKVSNKALPASIEKTISKAKGQPREPQVYTLPPSREEMTKNQVSLSCAVKGFYPSDIAVEWESNGQPENNYKTTPPVLDSDGSFFLVSKLTVDKSRWQQGNVFSCSVMHEALHNRYTQKSLSLSPGK
heavy: QMQLQESGPGLVKPSETLSLTCSVSGASISDSYWSWIRRSPGKGLEWIGYVHKSGDTNYNPSLKSRVHLSLDTSKNQVSLSLTGVTAADSGKYYCARTLHGRRIYGIVAFNEWFTYFYMDVWGTGTQVTVSSASTKGPSVFPLAPSSKSTSGGTAALGCLVKDYFPEPVTVSWNSGALTSGVHTFPAVLQSSGLYSLSSVVTVPSSSLGTQTYICNVNHKPSNTKVDKKVEPKSCDKTHTCPPCPAPEAAGGPSVFLFPPKPKDTLMISRTPEVTCVVVDVSHEDPEVKFNWYVDGVEVHNAKTKPREEQYNSTYRVVSVLTVLHQDWLNGKEYKCKVSNKALPASIEKTISKAKGQPREPQVYTLPPSREEMTKNQVSLWCLVKGFYPSDIAVEWESNGQPENNYKTTPPVLDSDGSFFLYSKLTVDKSRWQQGNVFSCSVMHEALHNHYTQKSLSLSPGK
light: not shown
On to B11, for which the EC50 – broadly, the concentration that produces a half-maximal response – in [7] was 0.02 µg/mL; in [8], 0.02 µg/mL; in [9], 0.05 µg/mL; in assay [10] it was 0.08 µg/mL; in assay [11] it was 0.06 µg/mL; in [12], 0.03 µg/mL. Moreover, the EC50 in [13] and in [14] was 0.04 µg/mL throughout.
